Measured values taken from the supplement of paper PMC10126150.
± gives the standard deviation of the averaged measurements.

These sequences were tested on ATP (assay: switch fluorescence ratio, 500 uM ATP over buffer (Cy3 cluster intensity, sum of 5 cycles each) (fold (ratio)); higher = stronger signal-on switching upon ATP binding; sequences stand for … in TCGTCGGCAGCGTCAGATGTGTATAAGAGACAGTTTTTTTTTTTTTTTTTTTTTTTTT…TC). Conditions: aptamer strand: ATP DNA aptamer (quencher-CACCTGGGGGAGTATTGCGGAGGAAGG + anchor), 100 nM annealed; ATP concentration: 500 uM.
Procedure, shortened: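 After annealing to 100 nM quencher-labelled ATP aptamer, Cy3-labelled switching-strand clusters on a modified Illumina MiSeq flow-cell were imaged in selection buffer. A second image followed after 15 min with 500 uM ATP at 22 °C, and five such buffer/ATP cycles were done, each separated by NaOH stripping and re-annealing. The fluorescence ratio, averaged per switch-domain sequence, is summed target-cycle over summed buffer-cycle Cy3 intensity per cluster, with clusters outside 100-1000 RFU excluded.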
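Further: ATP exposure 15 min at 22 °C before imaging.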

Row | Sequence | switch fluorescence ratio
1 | ATATCGTGCA | 0.9972 ± 0.006
2 | ATATCTGGCA | 1.02 ± 0.032
3 | ATATGATTGA | 0.9686 ± 0.0044
4 | ATATGCGAAC | 1.1 ± 0.035
5 | ATATGCGGGT | 0.985 ± 0.032
6 | ATATGCTAAG | 0.9935 ± 0.0099
7 | ATATGGAATT | 0.977 ± 0.0046
8 | ATATGGATGT | 0.997 ± 0.029
9 | ATATGGATTA | 1.012 ± 0.0068
10 | ATATGGGGGG | 0.998 ± 0.023
11 | ATATGGTCTA | 0.999 ± 0.053
12 | ATATGGTTGA | 0.964 ± 0.049
13 | ATATGTCTGG | 0.953 ± 0.017
14 | ATATGTGGAA | 1.015 ± 0.01
15 | ATATGTGGGA | 1.02 ± 0.033
16 | ATATGTGTGT | 0.995 ± 0.018
17 | ATATGTGTTG | 0.992 ± 0.0066
18 | ATATTACGAA | 1.02 ± 0.035
19 | ATATTAGGGC | 1.02 ± 0.015
20 | ATATTAGGGG | 1.01 ± 0.032
21 | ATATTATTTC | 1.006 ± 0.0058
22 | ATATTCGATT | 0.999 ± 0.027
23 | ATATTCTTCC | 1.96 ± 0.18
24 | ATATTGATGT | 1.01 ± 0.037
25 | ATATTGATTC | 1.01 ± 0.027

Row | Sequence | switch fluorescence ratio
26 | ATATTGCTCG | 1.05 ± 0.06
27 | ATATTGCTGA | 0.978 ± 0.078
28 | ATATTGGAGA | 1.13 ± 0.25
29 | ATATTGGGGA | 1.01 ± 0.025
30 | ATATTGGGTT | 0.9708 ± 0.0074
31 | ATATTGTAAC | 0.98 ± 0.013
32 | ATATTGTCCA | 1.02 ± 0.0039
33 | ATATTTAACC | 1.02 ± 0.025
34 | ATATTTCAGG | 0.999 ± 0.027
35 | ATATTTGCGT | 0.974 ± 0.021
36 | ATATTTGGAT | 1.03 ± 0.018
37 | ATATTTTACG | 1.02 ± 0.06
38 | ATATTTTAGC | 1.03 ± 0.074
39 | ATATTTTGTA | 0.983 ± 0.036
40 | ATCAAAAGCG | 0.96765 ± 0.00089
41 | ATCAAACGGG | 1.02 ± 0.029
42 | ATCAAATCGA | 1 ± 0.043
43 | ATCAAGGGTT | 0.991 ± 0.025
44 | ATCAAGGTTG | 0.978 ± 0.031
45 | ATCAAGTGAG | 0.998 ± 0.015
46 | ATCAATCTCG | 1.017 ± 0.0093
47 | ATCAATGAAG | 0.975 ± 0.023
48 | ATCAATGTCT | 0.994 ± 0.005
49 | ATCAATTTAG | 1.02 ± 0.038
50 | ATCACAACTG | 0.997 ± 0.15

Row | Sequence | switch fluorescence ratio
51 | ATCACAATTT | 1.04 ± 0.017
52 | ATCACATTGG | 1.02 ± 0.071
53 | ATCACGATGG | 1.03 ± 0.019
54 | ATCACGTCTA | 1.024 ± 0.003
55 | ATCACGTTTT | 0.991 ± 0.051
56 | ATCAGAGCCG | 0.98 ± 0.083
57 | ATCAGATAGG | 1 ± 0.026
58 | ATCAGATATG | 0.9974 ± 0.0033
59 | ATCAGCAGGC | 1.6 ± 0.045
60 | ATCAGGAAAA | 1.02 ± 0.071
61 | ATCAGGGGGG | 1.02 ± 0.037
62 | ATCAGGGGTA | 1.26 ± 0.34
63 | ATCAGGGGTT | 1.34 ± 0.6
64 | ATCAGGTACG | 1.02 ± 0.033
65 | ATCAGGTTCT | 1.028 ± 0.0031
66 | ATCAGTGCGA | 1.036 ± 0.0081
67 | ATCAGTGGTA | 0.987 ± 0.028
68 | ATCATAGCGG | 1 ± 0.015
69 | ATCATATTAG | 1.01 ± 0.019
70 | ATCATTAATG | 1.01 ± 0.014
71 | ATCATTAGGA | 0.9922 ± 0.0046
72 | ATCATTTAGT | 0.982 ± 0.027
73 | ATCATTTGTC | 1.022 ± 0.0092
74 | ATCATTTGTT | 0.991 ± 0.017
75 | ATCCAAATGG | 1.01 ± 0.033

Row | Sequence | switch fluorescence ratio
76 | ATCCAGGGGA | 0.989 ± 0.06
77 | ATCCAGT | 1.036 ± 0.0033
78 | ATCCATACAA | 1.03 ± 0.035
79 | ATCCATTCA | 1.02 ± 0.0094
80 | ATCCGAAGAT | 1.04 ± 0.016
81 | ATCCGAGTCA | 1.07 ± 0.014
82 | ATCCGGGACC | 1.06 ± 0.02
83 | ATCCGGGATG | 1.03 ± 0.021
84 | ATCCGGGGGA | 1.04 ± 0.11
85 | ATCCGTAGGT | 0.995 ± 0.029
86 | ATCCGTGGTT | 1.01 ± 0.047
87 | ATCCGTGTCG | 1.02 ± 0.048
88 | ATCCTCGTTG | 1.02 ± 0.03
89 | ATCCTGGATA | 1.003 ± 0.01
90 | ATCCTGGGTG | 3.73 ± 1.5
91 | ATCCTTGCG | 1.022 ± 0.0053
92 | ATCCTTGGTC | 1.01 ± 0.023
93 | ATCGAAGCCA | 1.091 ± 0.0016
94 | ATCGAGAGGT | 0.973 ± 0.019
95 | ATCGAGGGGA | 0.978 ± 0.019
96 | ATCGAGGGGT | 0.955 ± 0.037
97 | ATCGATATTG | 0.991 ± 0.029
98 | ATCGATTGTT | 1.01 ± 0.031
99 | ATCGCATATG | 1.08 ± 0.053
100 | ATCGCGACTA | 1.05 ± 0.036

Row | Sequence | switch fluorescence ratio
101 | ATCGCGAGGA | 1.026 ± 0.0025
102 | ATCGCGTGTG | 1.009 ± 0.0062
103 | ATCGCTTAGG | 1 ± 0.012
104 | ATCGGAATAA | 1.4 ± 0.025
105 | ATCGGACGCG | 0.987 ± 0.016
106 | ATCGGATGGC | 1.06 ± 0.02
107 | ATCGGGAGAT | 0.9833 ± 0.0076
108 | ATCGGGAGCC | 0.959 ± 0.03
109 | ATCGGGCTGT | 1.03 ± 0.013
110 | ATCGGGGAGA | 0.997 ± 0.017
111 | ATCGGGGGA | 1.02 ± 0.051
112 | ATCGGGGGTC | 0.946 ± 0.032
113 | ATCGGGGGTT | 0.987 ± 0.023
114 | ATCGGGGTCC | 1.02 ± 0.019
115 | ATCGGGTAA | 0.9965 ± 0.0029
116 | ATCGGGTCGG | 1.01 ± 0.03
117 | ATCGGTGGGG | 0.963 ± 0.019
118 | ATCGTATGGA | 0.998 ± 0.013
119 | ATCGTGATGG | 1.03 ± 0.04
120 | ATCGTGGGAA | 0.9793 ± 0.0059
121 | ATCGTGGGGG | 1 ± 0.028
122 | ATCGTGTTGA | 0.971 ± 0.02
123 | ATCGTTATCA | 0.991 ± 0.056
124 | ATCGTTCGTG | 0.99714 ± 0.00096
125 | ATCGTTCTGT | 0.966 ± 0.025

Row | Sequence | switch fluorescence ratio
126 | ATCGTTGAGG | 0.986 ± 0.023
127 | ATCGTTGCGG | 1.1 ± 0.099
128 | ATCGTTGTA | 1.04 ± 0.069
129 | ATCGTTGTAC | 1.18 ± 0.048
130 | ATCGTTTAAT | 0.9671 ± 0.003
131 | ATCTACATTA | 1.04 ± 0.015
132 | ATCTACGTTG | 1.05 ± 0.012
133 | ATCTAGGTCA | 1.02 ± 0.037
134 | ATCTAGTTTG | 1.01 ± 0.045
135 | ATCTATCGTG | 0.991 ± 0.021
136 | ATCTATGGTG | 1.02 ± 0.02
137 | ATCTCTGGGT | 1 ± 0.033
138 | ATCTCTGGTC | 0.976 ± 0.027
139 | ATCTGAGAGG | 1.003 ± 0.0031
140 | ATCTGGAATA | 1.24 ± 0.039
141 | ATCTGGCTCG | 0.988 ± 0.016
142 | ATCTGTTTTT | 0.972 ± 0.0075
143 | ATCTTAATG | 1.01 ± 0.05
144 | ATCTTAGTGC | 1 ± 0.026
145 | ATCTTCAATT | 1.005 ± 0.0055
146 | ATCTTGAGAC | 1.02 ± 0.042
147 | ATCTTGGGTT | 1.006 ± 0.0064
148 | ATCTTGTGGC | 0.972 ± 0.032
149 | ATCTTGTGTC | 0.945 ± 0.02
150 | ATCTTGTTGG | 1.13 ± 0.27

Row | Sequence | switch fluorescence ratio
151 | ATCTTTATGT | 1.03 ± 0.017
152 | ATCTTTCGCG | 1.02 ± 0.015
153 | ATCTTTTAGG | 1.07 ± 0.11
154 | ATGAAATCTG | 1.06 ± 0.074
155 | ATGAAGAGAG | 0.9897 ± 0.0069
156 | ATGAAGCTAG | 1.06 ± 0.013
157 | ATGAAGGGAA | 0.999 ± 0.017
158 | ATGAAGGGTG | 1.04 ± 0.036
159 | ATGAAGTTGT | 1.019 ± 0.01
160 | ATGAATCTTG | 1.02 ± 0.032
161 | ATGAATGTTT | 1 ± 0.026
162 | ATGAATTTGG | 0.973 ± 0.025
163 | ATGACCGGTT | 1.01 ± 0.046
164 | ATGACCTCGG | 1.02 ± 0.07
165 | ATGACGAAGC | 1.57 ± 0.13
166 | ATGACGCCTG | 1 ± 0.022
167 | ATGACTTGCG | 1 ± 0.023
168 | ATGACTTGGG | 0.96 ± 0.011
169 | ATGACTTTGG | 0.977 ± 0.028
170 | ATGAGAAGGC | 0.997 ± 0.038
171 | ATGAGACCCT | 1.07 ± 0.036
172 | ATGAGAGCTT | 0.982 ± 0.011
173 | ATGAGATAGG | 0.982 ± 0.045
174 | ATGAGATTGC | 0.9899 ± 0.0076
175 | ATGAGGCACG | 1.05 ± 0.068

Row | Sequence | switch fluorescence ratio
176 | ATGAGGGCAG | 0.993 ± 0.018
177 | ATGAGGGGCA | 0.98 ± 0.026
178 | ATGAGGTTTG | 1.01 ± 0.019
179 | ATGAGGTTTT | 0.991 ± 0.012
180 | ATGAGTCTTT | 0.9801 ± 0.0079
181 | ATGAGTGCTC | 0.98 ± 0.0086
182 | ATGAGTGGAG | 1.034 ± 0.004
183 | ATGAGTTACT | 1.005 ± 0.0051
184 | ATGAGTTGGT | 0.982 ± 0.033
185 | ATGAGTTTTG | 0.984 ± 0.029
186 | ATGATACAGG | 1.08 ± 0.039
187 | ATGATATGTT | 0.992 ± 0.034
188 | ATGATGCAGA | 1.004 ± 0.008
189 | ATGATGCTTG | 0.993 ± 0.045
190 | ATGATGGGGA | 0.987 ± 0.021
191 | ATGATGGGTG | 1.01 ± 0.02
192 | ATGATGGTCC | 0.9778 ± 0.0014
193 | ATGATGGTTA | 0.9978 ± 0.0052
194 | ATGATTGACC | 1.083 ± 0.0026
195 | ATGATTTTTC | 0.976 ± 0.039
196 | ATGCAACCAT | 1.01 ± 0.013
197 | ATGCACGTGG | 1.008 ± 0.003
198 | ATGCACTGGG | 1.08 ± 0.05
199 | ATGCATAGAT | 1.01 ± 0.032
200 | ATGCATGAAA | 1 ± 0.017
